Blank lines part the entries; values can stand above or below the binder they belong to. No end group written: not given here.
Key:
Assay in all cases: SPR
[1] = biological target: T1, N-terminal SH2 domain of SHP2
T1 chain: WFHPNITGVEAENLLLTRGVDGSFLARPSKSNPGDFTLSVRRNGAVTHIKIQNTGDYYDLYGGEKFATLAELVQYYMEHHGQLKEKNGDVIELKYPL

[2] = biological target: T2, C-terminal SH2 domain of SHP2
T2 chain: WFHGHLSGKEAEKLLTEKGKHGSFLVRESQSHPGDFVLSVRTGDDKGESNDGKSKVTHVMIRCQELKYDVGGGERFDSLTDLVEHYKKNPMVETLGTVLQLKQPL

dual SH2 domains of SHP2 [3] = biological target: T3, dual SH2 domains of SHP2
T3 chain: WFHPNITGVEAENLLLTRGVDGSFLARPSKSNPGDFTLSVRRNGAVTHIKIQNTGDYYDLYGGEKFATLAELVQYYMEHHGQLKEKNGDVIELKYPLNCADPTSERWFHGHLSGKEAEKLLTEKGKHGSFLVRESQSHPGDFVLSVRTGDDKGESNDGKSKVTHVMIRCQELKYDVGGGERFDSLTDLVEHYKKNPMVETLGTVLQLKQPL

[4] = biological target: T1, N-terminal SH2 domain of SHP2
[5] = biological target: T2, C-terminal SH2 domain of SHP2
dual SH2 domains of SHP2 [6] = biological target: T3, dual SH2 domains of SHP2

- koff [1]: 0.000297 s⁻¹
- koff [2]: 0.00329 s⁻¹
- koff (dual SH2 domains of SHP2 [3]): 0.000121 s⁻¹
- Kd [4]: 3.35 nM
- Kd [5]: 0.638 nM
- Kd (dual SH2 domains of SHP2 [6]): 1.84 nM
Binder: KEDPSAVPVFSVDYGELDFQWRE (also: phosphorylated, residue not given here, biotinylated, site not given here) [phosphorylated PD1 ITIM peptide]

- Kd [4]: 0.442 nM
- Kd [5]: 15.1 nM
- Kd (dual SH2 domains of SHP2 [6]): 3.01 nM
B1: phosphorylated PD1 ITSM peptide (peptide)
chain: KTPEPPVPSVPEQTEYATIVFPSGMGTSS
modifications: also: phosphorylated, residue not given here, biotinylated, position not given here
